{"source": "patent US20230143604A1", "about": "“QW DOSING OF GIP RECEPTOR AGONIST PEPTIDE COMPOUNDS AND USES THEREOF” (TAKEDA PHARMACEUTICAL COMPANY LIMITED, priority 2020, published 2023)", "binders": {"B1": {"name": "Compound No. 106 (peptide)", "peptide": "[NMeY][Aib]EGTFISDYSI[Aib]LDR[Aib]AA[Aib]K([AEEA-AEEA-γGlu-γGlu-C18 diacid])FVNWLLAQRPSSGAPPPS-NH2"}, "B2": {"name": "Compound No. 84 (peptide)", "peptide": "YXEGTFISDYSIAXDRXAQXDFVNWLLAQSPG", "modifications": "N-methyl Tyr 1; Aib at 2,17,20; Lys(G5-C18 diacid) at 14; C-terminal OH"}, "B3": {"name": "Compound No. 88 (peptide)", "peptide": "B2 peptide with A13X, X14L", "modifications": "N-methyl Tyr 1; Aib at 2,13,20; Lys(G5-C18 diacid) at 17; C-terminal OH"}, "B4": {"name": "Compound No. 94 (peptide)", "peptide": "[NMeY][Aib]EGTFISDYSI[Aib]LDR[Aib]AQ[Aib]K([AEEA-AEEA-γGlu-γGlu-C17 diacid])FVNWLLAQSPSSGAPPPS-NH2"}, "B5": {"name": "Compound No. 9 (peptide)", "peptide": "[NMeY][Aib]EGTFISDYSIALDR[Aib]AQ[Aib]K([2OEGgEgE-C17 diacid])FVNWLLAQR-OH"}, "B6": {"name": "Compound No. 103 (peptide)", "peptide": "[NMeY][Aib]EGTFISDYSIALDR[Aib]AQ[Aib]K([GGPAPAP-C18 diacid])FVNWLLAQSPSSGAPPPS-OH"}, "B7": {"name": "Compound No. 89 (peptide)", "peptide": "[NMeY][Aib]EGTFISDYSI[Aib]LDR[Aib]AQ[Aib]K([2OEGgEgE-C18 diacid])FVNWLLAQRPSSGAPPPS-NH2"}, "B8": {"name": "Compound No. 97 (peptide)", "peptide": "[NMeY][Aib]EGTFISDYSIALDR[Aib]AQ[Aib]K([AEEA-AEEA-γGlu-γGlu-C18 diacid])FVNWLLAQSPSSGAPPPS-NH2"}, "B9": {"name": "Compound No. 102 (peptide)", "peptide": "[NMeY][Aib]EGTFISDYSIALDR[Aib]K([GGPAPAP-C18 diacid])Q[Aib]DFVNWLLAQSPSSGAPPPS-OH"}, "B10": {"name": "Compound No. 93 (peptide)", "peptide": "[NMeY][Aib]EGTFISDYSI[Aib]LDR[Aib]AQ[Aib]K([AEEA-γGlu-γGlu-C18 diacid])FVNWLLAQSPSSGAPPPS-NH2"}, "B11": {"name": "Compound No. 86 (peptide)", "peptide": "[NMeY][Aib]EGTFISDYSIALDR[Aib]AQ[Aib]K([2OEGgEgE-C18 diacid])FVNWLLAQSPG-OH"}, "B12": {"name": "Compound No. 73 (peptide)", "peptide": "[NMeY][Aib]EGTFISDYSI[Aib]LDR[Aib]K([2OEGgEgE-C18 diacid])Q[Aib]DFVNWLLAQRG-OH"}, "B13": {"name": "Compound No. 104 (peptide)", "peptide": "[NMeY][Aib]EGTFISDYSIALDR[Aib]AQ[Aib]K([GGPAPAP-γGlu-C18 diacid])FVNWLLAQSPSSGAPPPS-OH"}, "B14": {"name": "Compound No. 107 (peptide)", "peptide": "[NMeY][Aib]EGTFISDYSI[Aib]LDR[Aib]AA[Aib]K([AEEA-AEEA-γGlu-γGlu-C18 diacid])FVNWLLAQSPSSGAPPPS-NH2"}, "B15": {"name": "Compound No. 100 (peptide)", "peptide": "[NMeY][Aib]EGTFISDYSI[Aib]LDR[Aib]K([AEEA-AEEA-γGlu-γGlu-C18 diacid])Q[Aib]NFVNWLLAQSPSSGAPPPS-NH2"}, "B16": {"name": "Compound No. 70 (peptide)", "peptide": "YXEGTFISDYSIAXDRXAQXDFVNWLLAQRPSSG", "modifications": "N-methyl Tyr 1; Aib at 2,17,20; Lys(G5-C18 diacid) at 14; C-terminal OH"}, "B17": {"name": "Compound No. 76 (peptide)", "peptide": "YXEGTFISDYSIAXDKXAQXDFVNWLLAQKG", "modifications": "N-methyl Tyr 1; Aib at 2,17,20; Lys(G5-C18 diacid) at 14; C-terminal OH"}}, "note": "Changes are numbered by the printed parent chain. Starred links: 1 amine or outer side, 2 acyl side, 3 side chain; linkers in the order of their positions; H or OH if unused. Non-standard residues stand in square brackets, D forms with d. Groups on a side chain read outwards from the residue. No end group written: not given here. *: point of attachment. C18 diacid = O=C(O)CCCCCCCCCCCCCCCCC(=O)*; C17 diacid = O=C(O)CCCCCCCCCCCCCCCC(=O)*; γGlu = O=C(O)[C@H](CCC(=O)[*:2])N[*:1]; NMeY = CN[C@@H](Cc1ccc(O)cc1)C(=O)O; AEEA = NCCOCCOCC(=O)O; Aib = CC(C)(N)C(=O)O"}
{"target": "full-length human GLP-1R with an N-terminal FLAG tag (human, UniProt P43220 24-463)", "test": "cell-based or functional assay", "units": {"Human GLP1R cAMP EC50, HEK293T": "nM"}}
{"binder": "B1", "Human GLP1R cAMP EC50, HEK293T": 12}
{"binder": "B2", "Human GLP1R cAMP EC50, HEK293T": 58.9}
{"binder": "B3", "Human GLP1R cAMP EC50, HEK293T": 13.5}
{"binder": "B4", "Human GLP1R cAMP EC50, HEK293T": 63.1}
{"binder": "B5", "Human GLP1R cAMP EC50, HEK293T": 7.94}
{"binder": "B6", "Human GLP1R cAMP EC50, HEK293T": 29.5}
{"binder": "B7", "Human GLP1R cAMP EC50, HEK293T": 42.7}
{"binder": "B8", "Human GLP1R cAMP EC50, HEK293T": 52.5}
{"binder": "B9", "Human GLP1R cAMP EC50, HEK293T": 117}
{"binder": "B10", "Human GLP1R cAMP EC50, HEK293T": 29.5}
{"binder": "B11", "Human GLP1R cAMP EC50, HEK293T": 58.9}
{"binder": "B12", "Human GLP1R cAMP EC50, HEK293T": 363}
{"binder": "B13", "Human GLP1R cAMP EC50, HEK293T": 66.1}
{"binder": "B14", "Human GLP1R cAMP EC50, HEK293T": 45.7}
{"binder": "B15", "Human GLP1R cAMP EC50, HEK293T": "> 1000"}
{"binder": "B16", "Human GLP1R cAMP EC50, HEK293T": 43.7}
{"binder": "B17", "Human GLP1R cAMP EC50, HEK293T": 28.8}
{"target": "T1, full-length human GIPR with an N-terminal FLAG tag (human, UniProt P48546 22-466)", "T1 sequence (looked up)": "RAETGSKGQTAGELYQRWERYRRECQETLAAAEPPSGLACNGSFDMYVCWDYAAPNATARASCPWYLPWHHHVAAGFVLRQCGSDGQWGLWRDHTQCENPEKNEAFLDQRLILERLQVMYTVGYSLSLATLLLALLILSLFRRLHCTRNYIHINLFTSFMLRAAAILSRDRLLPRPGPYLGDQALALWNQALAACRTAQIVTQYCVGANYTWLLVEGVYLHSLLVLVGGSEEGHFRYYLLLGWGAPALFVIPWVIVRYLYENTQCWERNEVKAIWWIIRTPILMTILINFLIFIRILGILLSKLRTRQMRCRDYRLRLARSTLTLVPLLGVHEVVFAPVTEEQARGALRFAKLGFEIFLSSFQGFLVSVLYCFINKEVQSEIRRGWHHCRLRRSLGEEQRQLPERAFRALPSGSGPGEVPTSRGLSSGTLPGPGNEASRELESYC", "test": "cell-based or functional assay", "units": {"Human GIPR cAMP EC50, HEK293T": "nM"}}
{"binder": "B1", "Human GIPR cAMP EC50, HEK293T": 0.0004}
{"binder": "B2", "Human GIPR cAMP EC50, HEK293T": 0.0002}
{"binder": "B3", "Human GIPR cAMP EC50, HEK293T": 0.0004}
{"binder": "B4", "Human GIPR cAMP EC50, HEK293T": 0.0006}
{"binder": "B5", "Human GIPR cAMP EC50, HEK293T": 0.0004}
{"binder": "B6", "Human GIPR cAMP EC50, HEK293T": 0.0017}
{"binder": "B7", "Human GIPR cAMP EC50, HEK293T": 0.0004}
{"binder": "B8", "Human GIPR cAMP EC50, HEK293T": 0.0006}
{"binder": "B9", "Human GIPR cAMP EC50, HEK293T": 0.0005}
{"binder": "B10", "Human GIPR cAMP EC50, HEK293T": 0.0006}
{"binder": "B11", "Human GIPR cAMP EC50, HEK293T": 0.0003}
{"binder": "B12", "Human GIPR cAMP EC50, HEK293T": 0.0003}
{"binder": "B13", "Human GIPR cAMP EC50, HEK293T": 0.0005}
{"binder": "B14", "Human GIPR cAMP EC50, HEK293T": 0.0004}
{"binder": "B15", "Human GIPR cAMP EC50, HEK293T": 0.0006}
{"binder": "B16", "Human GIPR cAMP EC50, HEK293T": 0.0002}
{"binder": "B17", "Human GIPR cAMP EC50, HEK293T": 0.0006}
